From publication PMC5040716

Test system: MgaSpn-His (Streptococcus pneumoniae)
Test: EMSA
Conditions: MgaSpn EMSA: 40 mM Tris-HCl pH 7.6, 1 mM DTT, 0.4 mM EDTA, 1-2% glycerol, 50 mM NaCl, 10 mM MgCl2, 500 ug/ml BSA, 2 nM DNA, ambient, 20 min; MgaSpn footprint: …

Substance | Kd [nM]
hlyC 290-bp fragment | 75
hlyR 288-bp fragment | 50
